Measured values from US20210309755A1 (FRED HUTCHINSON CANCER CENTER, published 2021).

Assays:
[1] = target: T1, MSLN-Avi ectodomain (human ectodomain of MSLN) (human, UniProt Q13421 296-598, limits assumed); assay: SPR, Biacore T100, 25 C; antibody captured on goat anti-human Fc (57.1 +/- 0.8 RUs), MSLN-Avi as analyte 2.0-1000 nM in duplicate, 1:1 fit
T1 construct: extracellular domain; Expressed in 293-F cells as the fusion sFlag-His-Scn-tev-MSLN-Avi and cleaved with TEV protease; It was the analyte in SPR, and I take it to be the MSLN in the Fab:MSLN crystal complex as well; not shown: Avi tag
T1 sequence (Q13421 other isoform, or with tags, fused parts or gaps limits assumed): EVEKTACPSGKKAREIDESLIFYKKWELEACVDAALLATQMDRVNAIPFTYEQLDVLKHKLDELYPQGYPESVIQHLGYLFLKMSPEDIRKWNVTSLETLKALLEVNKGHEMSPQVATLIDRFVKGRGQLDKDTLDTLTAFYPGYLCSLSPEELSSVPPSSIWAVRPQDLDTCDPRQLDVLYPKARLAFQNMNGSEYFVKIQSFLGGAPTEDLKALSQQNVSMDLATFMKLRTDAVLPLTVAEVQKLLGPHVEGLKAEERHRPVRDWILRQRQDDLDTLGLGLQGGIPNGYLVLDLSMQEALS
Protocol: (§1) Surface plasmon resonance (SPR) experiments were performed at 25° C. on a BIACORE™ T100 instrument (GE Healthcare) with a Series S CM4 chip using a running buffer of 10 mM HEPES, pH 7.4, 150 mM NaCl, 3 mM EDTA, 0.05% surfactant P20 with 0.1 mg/mL bovine serum albumin. Goat anti-human Fc antibody (Jackson Labs: 109005098) was amine coupled to the CM4 chip (˜2800 RUs) and each antibody was then captured on a single flow cell of immobilized goat anti-human Fc. The purified MSLN-Avi (discussed above) was run as a concentration series at 50 uL/min over the captured antibodies and the goat anti-human Fc reference surface. CM4 chip was regenerated with 10 mM glycine, pH1.5 for 30 sec at 50 uL/min. Data was double referenced and analyzed in BiaEval 2.0.4.

[2] = target: T1, MSLN-Avi ectodomain (human ectodomain …); assay: written beside the structure of the 1A12 Fab on MSLN; no assay named on the sheet (the value is the rounded SPR fit of FIG. 7A)
Protocol: as §1

Kd [1]: 64.4 nM
koff [1]: 0.00458 s⁻¹
kon [1]: 71100 M⁻¹ s⁻¹
Kd [2]: 64 nM
B1: 1A12 anti-MSLN antibody (antibody, human IgG1, V domains shown)
VH: EVQLLESGGGLVQPGGSLRLSCAASGLTFRSYAMTWVRQAPGKGLEWVSGISVSGGITYYADSVKGRFTISRDNSKNTLYLQMNSLRAEDTAVYYCAKRGAAVGSFDYWGQGTLVTVSS
VL: DIQMTQSPSSLSASVGDRVTITCRSSQGIGSWLAWYQQKPEKAPQSLIYAASSLQSGVPSRFSGSGSGTDFTLTISNLQPEDFATYYCQQYNSYPLTFGGGTKVEIK
notes: also called 1A12b; anti-MSLN 1A12 antibody
